Data taken from patent US20170183639.

Tested on: YFP-CD2 (CD2 expressed in LLC-PK1 cells as a yellow fluorescent protein fused protein)

Substance: Src kinase of LLC-PK1 cells
- basal Src activity measured as Y418 phosphorylation: CD2 expression does increase basal Src activity in this manner as compared with a control cell line
